Reference: patent US8361965B2, “Recombinant chimeric protein of neutrophil inhibitory factor and hirugen, and pharmaceutical composition thereof” (Lunan Pharmaceutical Group Corporation, priority 2008, dated 2013)

Experiments:
[1] = test system: platelet aggregation induced by human thrombin; assay: antiplatelet aggregation assay (rabbits dosed i.v., thrombin-induced aggregation of PRP); type: in vivo, Japanese Giant Ear White Rabbits; conditions: for aggregation ratio, difference: before vs 15 min after
Protocol: Platelet aggregation rate was determined by puncture of the central artery of the ear before administration, and then rabbits were randomly divided into 5 groups (4 in each group) based on the platelet aggregation rate and body weight: (1) negative control group (5.12 mg mannitol/kg), (2) high dose TNHH group (4.0 mg/kg), (3) middle dose TNHH group (2.0 mg/kg), (4) low dose TNHH group (1.0 mg/kg), and (5) positive control group (0.1 mg recombinant hirudin/kg). The rabbits in each group were administered at the dose respectively via intravenous injection from the marginal ear vein. Blood samples were collected at the time of 15 min after administration (timed by stopwatch) by puncture of the central artery of the ear to determine the platelet aggregation rate. The method of platelet aggregation rate determination was described as follows: the blood samples were collected by puncture of the central artery of the ear using silicified syringe. 3.8% anticoagulant sodium citrate solution (blood: anticoagulant=9:1) was used. The sample was centrifuged at 200×g for 8 min, and the supernatant obtained was platelet-rich plasma (PRP); then the remaining part was centrifuged again at 2200×g for 10 min, and the supernatant obtained was platelet-poor plasma (PPP). The platelet in PRP was counted as approximate 4.0×10^5/mm^3. According to Born's turbidimetry, a turbidimetric tube with 200 μl PRP and a small magnetic bar was placed in a platelet aggregation instrument and incubated at 37 for 1 min. After calibrating with PPP, the platelet was induced to aggregate by adding inductive human thrombin (0.76 IU/ml) under stirring. The effect of medicaments on the aggregation of platelet was analyzed using the aggregation curve and the maximum aggregation rate obtained from the instrument. The maximum aggregation rate was calculated according to the formula below: […]

Human fibrin = target: T1, Human fibrin (Homo sapiens, UniProt P02671+P02675+P02679); assay: in vitro binding of TNHH to fibrin (SEC-HPLC); conditions: 37° C. 1 h
T1 construct: Human fibrin (1 g/ampoule, F5386), Sigma company; purchased Sigma F5386
T1 sequence (P02671 36-629 limits assumed): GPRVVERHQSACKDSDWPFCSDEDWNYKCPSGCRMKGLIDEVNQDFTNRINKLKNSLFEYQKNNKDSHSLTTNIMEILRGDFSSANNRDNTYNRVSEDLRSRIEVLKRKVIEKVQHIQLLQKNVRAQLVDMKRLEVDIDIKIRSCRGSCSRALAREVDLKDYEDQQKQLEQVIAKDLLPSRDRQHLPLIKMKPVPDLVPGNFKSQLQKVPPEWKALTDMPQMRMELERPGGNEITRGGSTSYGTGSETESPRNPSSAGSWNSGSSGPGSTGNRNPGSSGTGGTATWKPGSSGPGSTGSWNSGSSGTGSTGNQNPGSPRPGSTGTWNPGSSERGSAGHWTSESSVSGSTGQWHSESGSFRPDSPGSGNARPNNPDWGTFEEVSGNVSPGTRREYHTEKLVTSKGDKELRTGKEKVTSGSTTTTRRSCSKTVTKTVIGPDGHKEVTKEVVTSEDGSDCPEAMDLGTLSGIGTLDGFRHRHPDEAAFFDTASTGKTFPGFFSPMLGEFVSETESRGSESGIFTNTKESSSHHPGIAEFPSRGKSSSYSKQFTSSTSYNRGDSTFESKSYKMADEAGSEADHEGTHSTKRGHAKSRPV
T1 sequence (P02675 45-491 limits assumed): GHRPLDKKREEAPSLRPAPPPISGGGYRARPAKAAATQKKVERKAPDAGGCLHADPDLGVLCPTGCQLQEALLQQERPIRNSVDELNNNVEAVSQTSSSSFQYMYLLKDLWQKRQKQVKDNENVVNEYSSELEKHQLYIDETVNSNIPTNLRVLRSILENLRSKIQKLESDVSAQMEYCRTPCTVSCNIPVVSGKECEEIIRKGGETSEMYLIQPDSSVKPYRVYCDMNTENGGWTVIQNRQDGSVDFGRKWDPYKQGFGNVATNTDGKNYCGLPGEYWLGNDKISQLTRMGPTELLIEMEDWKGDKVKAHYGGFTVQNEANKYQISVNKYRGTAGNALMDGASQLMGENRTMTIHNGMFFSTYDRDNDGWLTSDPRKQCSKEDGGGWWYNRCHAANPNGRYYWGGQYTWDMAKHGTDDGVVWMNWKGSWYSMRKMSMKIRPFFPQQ
T1 sequence (P02679 27-437 isoform P02679-2 limits assumed): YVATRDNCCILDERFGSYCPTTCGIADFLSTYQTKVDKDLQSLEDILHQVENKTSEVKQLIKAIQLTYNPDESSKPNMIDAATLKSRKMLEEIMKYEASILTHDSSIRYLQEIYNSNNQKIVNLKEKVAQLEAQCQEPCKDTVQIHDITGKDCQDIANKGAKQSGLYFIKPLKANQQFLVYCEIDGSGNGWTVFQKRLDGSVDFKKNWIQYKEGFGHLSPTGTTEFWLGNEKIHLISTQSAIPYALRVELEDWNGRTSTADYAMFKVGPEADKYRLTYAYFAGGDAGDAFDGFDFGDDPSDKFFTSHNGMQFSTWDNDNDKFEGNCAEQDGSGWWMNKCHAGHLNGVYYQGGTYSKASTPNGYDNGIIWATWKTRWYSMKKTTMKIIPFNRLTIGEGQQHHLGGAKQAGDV
Protocol: Weigh TNHH, dilute to 1.0 mg/ml with phosphate buffer solution, and is ready for use; Weight fibrin precisely, dissolve and dilute to 0.1 mg/ml with phosphate buffer solution, and is ready for use; Weigh thrombin, dissolve and dilute to 100 units/ml with phosphate buffer solution, which is ready for use.
Following the below procedures, test materials were reacted at 37° C. for 1 h, and then analyzed under the following chromatographic conditions.
(1) pipette test material solutions (20 μl for each), loading for analysis, and recording each retention time.
(2) pipette fibrin and thrombin solutions (0.5 ml for each), mixing and reacting at 37° C. for 1 h, and loading 20 μl sample for analysis.
(3) pipette TNHH and fibrin solutions (0.5 ml for each), mixing and reacting at 37° C. for 1 h, and loading 20 μl sample for analysis.
(4) pipette TNHH and thrombin solutions (0.5 ml for each), mixing and reacting at 37° C. for 1 h, and loading 20 μl sample for analysis.
(5) pipette TNHH and mixture of fibrin and thrombin solutions (0.5 ml for each), mixing and reacting at 37° C. for 1 h, and loading 20 μl sample for analysis.
Flow rate 0.5 ml/min; detection wavelength: 214 nm, Column temperature: room temperature; chromatogram recording time: 25 min.

leukocyte adhesion = assay: anti-leukocyte adhesion activity, in vitro comparative analysis; type: cell-based

B1: TNHH: recombinant chimeric protein of neutrophil inhibitory factor and hirugen, Met-NIF-GGGGG-FPRPGSGG-Hirugen (SEQ ID NO: 3), expressed in E. coli (protein)
chain: MNEHNLRCPQNGTEMPGFNDSIRLQFLAMHNGYRSKLALGHISITEESESDDDDDFGFLPDFAPRASKMRYLEYDCEAEKSAYMSARNCSDSSSPPEGYDENKYIFENSNNISEAALKAMISWAKEAFNLNKTKEGEGVLYRSNHDISNFANLAWDAREKFGCAVVNCPLGEIDDETNHDGETYATTIHVVCHYPKINKTEGQPIYKVGTPCDDCSEYTKKADNTTSADPVCIPDDGVCFIGSKADYDSKEFYRFRELGGGGGFPRPGSGGNGDFEEIPEEYL
modifications: N-terminal Met
- aggregation ratio, Before administration ([1]; TNHH 1.0 mg/kg group): 57.19 ± 4.42%
- aggregation ratio, 15 min after administration ([1]; TNHH 1.0 mg/kg i.v.): 36.27 ± 12.13%
- aggregation ratio, difference ([1]; TNHH 1.0 mg/kg i.v.): 20.82 ± 7.98 %
- aggregation ratio, Before administration ([1]; TNHH 2.0 mg/kg group): 59.62 ± 7.22%
- aggregation ratio, 15 min after administration ([1]; TNHH 2.0 mg/kg i.v.): 19.33 ± 10.25%
- aggregation ratio, difference ([1]; TNHH 2.0 mg/kg i.v.): 30.30 ± 9.92 %
- aggregation ratio, Before administration ([1]; TNHH 4.0 mg/kg group): 59.23 ± 6.30%
- aggregation ratio, 15 min after administration ([1]; TNHH 4.0 mg/kg i.v.): 9.22 ± 4.51%
- aggregation ratio, difference ([1]; TNHH 4.0 mg/kg i.v.): 50.92 ± 4.33 %
- binding with fibrin (Human fibrin): could bind with fibrin and thrombin
- titer against leukocyte adhesion (leukocyte adhesion; TNHH 1.0 mg/ml): 720 unit/ml
- anti-leukocyte adhesion activity (leukocyte adhesion; in vitro): 750 Unit/mg
